Test results published in patent publication US20110229423A1 (Galderma Research & Development, priority 2008, published 2011).
Ends that are not written are not given here.

Assays:
VPAC1R mRNA = test: Semiquantitative RT-PCR of VPAC1R mRNA in HDMEC; assay type: cell-based, human; details: 6 h
Method: To verify our immunohistochemical observation on the mRNA level that the PACAP-induced effects in human dermal endothelial cells are mediated via VPAC1R, we performed RT PCR analysis for VPAC1R, VPAC2R and PAC1R in HDMEC (FIG. 11. Semiquantitative RT-PCR and gel electrophoresis of VPAC1R (FIG. 11A), PAC1R (FIG. 11B) and β-actin (FIG. 11C) in HDMEC. M=marker; lane 1: unstimulated HDMEC; lane 2: TNFα stimulated (4 ng/ml) HDMEC; lane 3 (11A): LPS-stimulated (10 ng/ml) HDMEC; lane 3 (11 B and 11C): HNK cells as positive control; lane 4: RT-control (negative control) In non-stimulated HDMEC cells, mRNA message was only found for PACAP and VPAC1R (FIG. 11A), but not PAC1R (FIG. 11B;) and VPAC2R (data not shown). Note that the PAC1R signal is positive in HNK cells that were used as a positive control. To examine whether proinflammatory mediators such as TNFα or LPS are capable of regulating VPAC1R mRNA expression, HDMEC were harvested without or 6 h after stimulation with TNFα (concentration: 4 ng/ml) or LPS (concentration: 10 ng/ml), respectively, and semiquantitative RT PCR was performed (FIG. 11). To consider the relative mRNA amount in the samples amplification of the housekeeping gene β-actin served as an internal control (FIG. 11C), TNFα as well as LPS induced upregulation of VPAC1R mRNA as compared to the unstimulated controls (FIG. 11). […]

human skin [1] = test: Flush phenomenon (erythema, edema) in volunteers after intravenous PACAP1-27; assay type: in vivo
Method: B) Flush phenomenon in a probationer after intravenous application of PACAP1-27. Note cutaneous erythema and facial as well as a marked periorbital edema 30 min after application). […] The approximate duration when first signs of a “flush” occurred were 46.03±5.3 min with 100 pmol/kg b.w./h PACAP1-27. The erythema persisted approximately for 6 h.

human skin [2] = test: Skin temperature (ST) in human volunteers before and after intravenous peptide application; assay type: in vivo
Method: First, the skin temperature (ST) was measured in different human body regions before and after continuous intravenous application of 100 pmol/kg b.w./h PACAP1-27. Under basal conditions a ST of 33.51±0.25° C. was measured at 0 min. Differences of ST [ΔT(° C.)] were measured after 5, 15, 30, 45, 60 min (FIG. 1: Changes in skin temperature [ΔT(° C.)] as compared to basal (0=33.51±0.25° C.) before and after continuous infusion of 100 pmol/kg b.w./h PACAP1-27 Mean±SEM, *=p<0.05 (n=10)). […] This increase persisted even after 30 min although less dramatic (+1.8° C.±0.26). […] This PACAP-induced effect in human skin was dose-dependent (FIG. 2: Changes in skin temperature [ΔT(° C.)] as compared to basal after continuous infusion of 7.5, 15, or 30 pmol/kg b.w./h PACAP1-27. Mean±SEM, *=p<0.05 (n=9). Mean time until first flush symptoms occurred was 46.03±5.30 min.). […] Next, ST was measured in different body regions before and after a bolus injection of […] PACAP1-27. […] Changes in skin temperature [ΔT(° C.)] as compared to basal ([…]=33.51±0.25° C.) under different conditions of continuous infusion and concentrations (◯=1 μg/kg b.w./h PACAP1-27; o=100 pmol/kg b.w./h). Mean±SEM, *=p<0.05 (n=10)). […] Mean±SEM, *=p<0.05 (n=7)).

VPAC1R = biological target: T1, VPAC1R (Homo sapiens, UniProt P32241); test: In vitro measurement of cAMP activation in HDMEC; assay type: cell-based
T1 construct: To confirm that HDMEC express functional VPAC1R, we kept HDMEC in FCS/nutrient deficient medium for 24 h; endogenous in cells; host or cells: HDMEC (human dermal microvascular endothelial cells)
T1 sequence (P32241 31-457): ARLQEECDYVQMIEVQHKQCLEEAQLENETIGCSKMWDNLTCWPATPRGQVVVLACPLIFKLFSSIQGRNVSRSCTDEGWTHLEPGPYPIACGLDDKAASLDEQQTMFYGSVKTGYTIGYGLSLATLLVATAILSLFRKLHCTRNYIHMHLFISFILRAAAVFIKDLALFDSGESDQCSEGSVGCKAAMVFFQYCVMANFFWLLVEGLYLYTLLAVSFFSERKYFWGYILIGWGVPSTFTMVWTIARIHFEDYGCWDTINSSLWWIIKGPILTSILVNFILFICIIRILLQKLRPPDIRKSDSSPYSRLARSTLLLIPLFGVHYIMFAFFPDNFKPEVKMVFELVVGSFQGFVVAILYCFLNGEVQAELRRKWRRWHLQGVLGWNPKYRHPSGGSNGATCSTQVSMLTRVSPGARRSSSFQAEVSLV
Method: For example, Human Dermal Microvascular Endothelial cells (HDMEC) can be grown in endothelial cell growth medium. Lyophilized PACAP1-38 can be diluted in the appropriate volume of HDMEC assay medium immediately prior to use. IBMX (3-Isobutyl-1-Methylxanthin) can be added to the medium as a phosphodiesterase inhibitor in order to measure all the intracellular built cAMP after receptor stimulation without the intrinsic phosphdiesterase cleaving some of it. After 24 h cells can be harvested and extracted with 65% ethanol in PBS which can be lyophilized and the cAMP concentration can be examined using a cAMP EIA-direct assay (Amersham Pharmacia Biotech).
Pretreatment with antagonist was 3 min before agonist stimulation. […] Experiments were performed at least three times). IBMX (3-Isobutyl-1-Methylxanthin; 4 mM) was added to the medium as a phosphodiesterase inhibitor in order to measure all the intracellular built cAMP after receptor stimulation without the intrinsic phosphodiesterase cleaving some of it.

HDMEC = test: ELISA for NO release by HDMEC; assay type: cell-based, human
Text: In an alternative approach, the determination of the activity of PACAP signalling pathway can be carried out using an Enzyme-Linked Immunosorbent Assay (ELISA) for nitric oxide (NO) production in HDMEC. To study cytokine release by HDMEC after PACAP stimulation, cells can be stimulated as described above and supernatants can be collected and frozen until use for ELISA assays. For the detection of NO release, NO-ELISA kits, for example from BioSource Int. can be used.
PACAP-induced release of NO in HDMEC. After finding that HDMEC express functional VPAC1R and that VPAC1R is the crucial receptor in human skin epithelium on the protein level, we examined whether PACAP is capable of releasing NO from HDMEC at similar concentrations. Therefore, we performed specific ELISAs with supernatants collected at time-points between […] (FIG. 12). Indeed, PACAP (10^−9 M) induced the release of NO (582%+/−25) by HDMEC as compared to control with a maximal effect at 15 min.

[3] = Systemic parameters: pulse and blood pressure RR syst./diast. during PACAP infusion; assay type: in vivo, human
Text: To test whether these prominent effects in human skin (erythema, edema) and difference in skin temperature [ΔT(° C.)] were due to a local vascular effect and not due to a secondary systemic effect we measured systemic parameters such as pulse (B/min) and blood pressure RR syst./diast. (mm Hg). […] Thus, PACAP-induced changes are most likely due to a local effect in cutaneous vasculature.

[4] = 30 min, change from 7.5 to 15 pmol/kg/h
[5] = 60 min, change from 15 to 30 pmol/kg/h

LPS
VPAC1R mRNA compared to unstimulated controls (VPAC1R mRNA; 10 ng/ml): upregulation

PACAP1-27
approximate duration when first signs of a flush occurred (human skin [1]; 100 pmol/kg b.w./h): 46.03 ± 5.3 min
mean time until first flush symptoms occurred (human skin [1]; FIG. 2: continuous infusion of 7.5, 15, or 30 pmol/kg b.w./h, n=9): 46.03 ± 5.30 min
persistence of erythema (human skin [1]; after i.v. application): ~6 h
erythema (flushing) and edema compared to control injections (human skin [1]; all participants, bolus and continuous infusion): significant development of erythema (flushing) and edema
healthy volunteers in whom the effect was dominant in the face and upper trunk (human skin [1]; i.v. application): nine out of ten
increase of skin temperature, bolus versus continuous infusion (human skin [2]; bolus 1 μmol/kg b.w./h compared with continuous 100 pmol/kg b.w./h): significantly higher increase of ST
maximum increase of skin temperature ΔT vs basal (human skin [2]; bolus injection 1 μmol/kg b.w./h, maximum after 30 min, n=8): 2.7 °C
skin temperature course after bolus (human skin [2]; bolus injection, after 60 min): slight decrease of ST
skin temperature compared to basal (human skin [2]; bolus injection, after 120 min): still elevated
increase of skin temperature ΔT vs basal (human skin [2]; continuous i.v. 100 pmol/kg b.w./h, after 5 min, n=10, mean±SEM): 1.2 °C
increase of skin temperature ΔT vs basal (human skin [2]; continuous i.v. 100 pmol/kg b.w./h, after 30 min, n=10, mean±SEM): 1.8 °C
further increase of skin temperature compared to 30 min (human skin [2]; continuous i.v. 100 pmol/kg b.w./h, between 30 and 60 min): no significant increase of ST
increase of skin temperature ΔT vs basal (human skin [2]; i.v. infusion 7.5 pmol/kg b.w./h over 30 min, n=9): 1.25 °C
increase of skin temperature ΔT vs basal (human skin [2]; i.v. infusion 15 pmol/kg b.w./h, n=9): 2.1 °C
increase of skin temperature ΔT vs basal (human skin [2]; i.v. infusion 30 pmol/kg b.w./h, n=9): 2.4 °C
skin temperature after stop of infusion (human skin [2]; immediately after infusion of 30 pmol/kg b.w./h was stopped): slowly decreased

PACAP6-27 (FTDSYSRYRKQMAVKKYLAAVL; ends and bridges not checked; UniProt P18509 137-158, looked up, fragment)
effect on agonist-induced cAMP activation (VPAC1R; 10^-7 M (100× the agonist), pretreatment 3 min before agonist): cut in half
PACAP-induced NO release after antagonist preincubation (value in brackets) (HDMEC; preincubation before PACAP): 79+/−22
effect of preincubation on PACAP-induced NO release (HDMEC; preincubation before PACAP): slightly enhanced
NO release when TNFa was incubated with the antagonist (HDMEC; with TNFa): significantly lower

Pituitary adenylate cyclase activating polypeptide [PACAP]
R diastol. ([3]; 5 min, infusion 7.5 pmol/kg/h): 72 ± 4 mmHg
R systol. ([3]; 5 min, infusion 7.5 pmol/kg/h): 107 ± 4 mmHg
pulse ([3]; 5 min, infusion 7.5 pmol/kg/h): 64 ± 3 B/min
R diastol. ([3]; 15 min, infusion 7.5 pmol/kg/h): 75 ± 3 mmHg
R systol. ([3]; 15 min, infusion 7.5 pmol/kg/h): 109 ± 4 mmHg
pulse ([3]; 15 min, infusion 7.5 pmol/kg/h): 66 ± 4 B/min
R diastol. [3, 4]: 75 ± 3 mmHg
R systol. [3, 4]: 111 ± 5 mmHg
pulse [3, 4]: 68 ± 3 B/min
R diastol. ([3]; 35 min, infusion 15 pmol/kg/h): 74 ± 4 mmHg
R systol. ([3]; 35 min, infusion 15 pmol/kg/h): 111 ± 5 mmHg
pulse ([3]; 35 min, infusion 15 pmol/kg/h): 69 ± 3 B/min
R diastol. ([3]; 45 min, infusion 15 pmol/kg/h): 74 ± 4 mmHg
R systol. ([3]; 45 min, infusion 15 pmol/kg/h): 111 ± 5 mmHg
pulse ([3]; 45 min, infusion 15 pmol/kg/h): 73 ± 4 B/min
R diastol. [3, 5]: 74 ± 3 mmHg
R systol. [3, 5]: 111 ± 5 mmHg
pulse [3, 5]: 69 ± 3 B/min
R diastol. ([3]; 65 min, infusion 30 pmol/kg/h): 74 ± 3 mmHg
R systol. ([3]; 65 min, infusion 30 pmol/kg/h): 109 ± 5 mmHg
pulse ([3]; 65 min, infusion 30 pmol/kg/h): 71 ± 3 B/min
R diastol. ([3]; 75 min, infusion 30 pmol/kg/h): 74 ± 3 mmHg
R systol. ([3]; 75 min, infusion 30 pmol/kg/h): 110 ± 5 mmHg
pulse ([3]; 75 min, infusion 30 pmol/kg/h): 72 ± 2 B/min
R diastol. ([3]; 90 min (end of infusion)): 72 ± 4 mmHg
R systol. ([3]; 90 min (end of infusion)): 109 ± 5 mmHg
pulse ([3]; 90 min (end of infusion)): 69 ± 3 B/min
R diastol. ([3]; 100 min, after end of infusion): 73 ± 4 mmHg
R systol. ([3]; 100 min, after end of infusion): 109 ± 5 mmHg
pulse ([3]; 100 min, after end of infusion): 66 ± 4 B/min
R diastol. ([3]; 110 min, after end of infusion): 72 ± 4 mmHg
R systol. ([3]; 110 min, after end of infusion): 109 ± 4 mmHg
pulse ([3]; 110 min, after end of infusion): 68 ± 4 B/min
R diastol. ([3]; 120 min, after end of infusion): 74 ± 3 mmHg
R systol. ([3]; 120 min, after end of infusion): 112 ± 4 mmHg
pulse ([3]; 120 min, after end of infusion): 71 ± 4 B/min
differences in RR syst./diast. or pulse ([3]; during and after infusion): No measurable differences
cAMP activation compared to the negative control (VPAC1R; 10^−9 M, IBMX 4 mM): more than 4 fold
activation of VPAC1R in HDMEC (cAMP) (VPAC1R; FIG. 10): dose-dependent activation
release of NO as compared to control (HDMEC; 10^−9 M): 582%
time of maximal effect on NO release (HDMEC; 10^−9 M): 15 min
NO release on incubation together with TNFα, versus TNFα alone (HDMEC; with TNFα): additive effect

TNFα
VPAC1R mRNA compared to unstimulated controls (VPAC1R mRNA; 4 ng/ml): upregulation

vasoactive intestinal peptide (HSDAVFTDNYTRLRKQMAVKKYLNSILN; ends and bridges not checked; UniProt P01282 125-152, looked up) [VIP1-28]
increase of skin temperature vs basal (human skin [2]; i.v. infusion 20 pmol/kg b.w./h, n=7): did not result in a significant increase of ST
increase of skin temperature ΔT vs basal (human skin [2]; i.v. infusion 100 pmol/kg b.w./h, maximum after 60 min, n=7): 1.36 °C
